Results: US5866538A, “Insulin preparations containing NaCl” (Novo Nordisk A/S, priority 1996, dated 1999)

Key:
[1] = Stability (formation of dimers and polymers) of B29-N^ε-myristoyl-des(B30) human insulin solutions, varying NaCl, mannitol and phenol (Example V); assay type: physicochemical; details: pH 7.4
Description: Solutions containing 0.6 mM B29-N^ε -myristoyl-des(B30) human insulin, 1.5 or 4.0 mg/ml phenol, 5 mM sodium phosphate, 13.1 μg/ml Zn, and varying amounts of sodium chloride and mannitol were prepared. pH was adjusted to 7.4. Stability data (formation of dimers and polymers) after storage at 25° C. for 13 weeks or 37° C. for 8 weeks are presented in the following table 7.

[2] = Stability (formation of dimers and polymers) of B29-N^ε-myristoyl des(B30) human insulin solutions, glycerol or mannitol, varying NaCl (Example VI); assay type: physicochemical; details: pH 7.5
Description: Solutions containing 0.6 mM B29-N^ε -myristoyl des(B30) human insulin, 1.5 mg/ml phenol and 1.72 mg/ml m-cresol, 16 mg/ml glycerol or 36 mg/ml mannitol, 13.1 μg/ml Zn, 7 mM sodium phosphate and varying amounts of sodium chloride were prepared. pH was adjusted to 7.5. Stability data (formation of dimers and polymers) after storage at 25° C. for 13 weeks or 37° C. for 8 weeks are presented in the following table 8.

In the case of “B29-N^ε -myristoyl-des(B30) human insulin”, the “Di- & polymers (%) formed” value ([1]; 8 weeks at 37° C., NaCl 20 mM, mannitol 31 mg/ml, phenol 1.5 mg/ml) is reported as 0.77%, the “Di- & polymers (%) formed” value ([1]; 8 weeks at 37° C., NaCl 20 mM, mannitol 31 mg/ml, phenol 4.0 mg/ml) is reported as 0.77% and the “Di- & polymers (%) formed” value ([1]; 8 weeks at 37° C., NaCl 50 mM, mannitol 22 mg/ml, phenol 1.5 mg/ml) is reported as 0.71%. For the same substance, the “Di- & polymers (%) formed” value ([1]; 8 weeks at 37° C., NaCl 50 mM, mannitol 22 mg/ml, phenol 4.0 mg/ml) was 0.71%, the “Di- & polymers (%) formed” value ([1]; 8 weeks at 37° C., NaCl 75 mM, mannitol 13 mg/ml, phenol 1.5 mg/ml) was 0.65% and the “Di- & polymers (%) formed” value ([1]; 8 weeks at 37° C., NaCl 75 mM, mannitol 13 mg/ml, phenol 4.0 mg/ml) was 0.70%. The “Di- & polymers (%) formed” value ([1]; 8 weeks at 37° C., NaCl 100 mM, mannitol 5 mg/ml, phenol 1.5 mg/ml) was 0.66%, the “Di- & polymers (%) formed” value ([1]; 8 weeks at 37° C., NaCl 100 mM, mannitol 5 mg/ml, phenol 4.0 mg/ml) was 0.68% and the “Di- & polymers (%) formed” value ([1]; 13 weeks at 25° C., NaCl 20 mM, mannitol 31 mg/ml, phenol 1.5 mg/ml) was 0.40%. The “Di- & polymers (%) formed” value ([1]; 13 weeks at 25° C., NaCl 20 mM, mannitol 31 mg/ml, phenol 4.0 mg/ml) was 0.42%, the “Di- & polymers (%) formed” value ([1]; 13 weeks at 25° C., NaCl 50 mM, mannitol 22 mg/ml, phenol 1.5 mg/ml) was 0.35% and the “Di- & polymers (%) formed” value ([1]; 13 weeks at 25° C., NaCl 50 mM, mannitol 22 mg/ml, phenol 4.0 mg/ml) was 0.37%. For the same substance, the “Di- & polymers (%) formed” value ([1]; 13 weeks at 25° C., NaCl 75 mM, mannitol 13 mg/ml, phenol 1.5 mg/ml) was 0.34%, the “Di- & polymers (%) formed” value ([1]; 13 weeks at 25° C., NaCl 75 mM, mannitol 13 mg/ml, phenol 4.0 mg/ml) was 0.39% and the “Di- & polymers (%) formed” value ([1]; 13 weeks at 25° C., NaCl 100 mM, mannitol 5 mg/ml, phenol 1.5 mg/ml) was 0.31%. For the same substance, the “Di- & polymers (%) formed” value ([1]; 13 weeks at 25° C., NaCl 100 mM, mannitol 5 mg/ml, phenol 4.0 mg/ml) was 0.37%, the “Di- & polymers (%) formed” value ([2]; 8 weeks at 37° C., NaCl 5 mM, glycerol 16 mg/ml) was 2.55% and the “Di- & polymers (%) formed” value ([2]; 8 weeks at 37° C., NaCl 5 mM, mannitol 36 mg/ml) was 2.28%. The “Di- & polymers (%) formed” value ([2]; 8 weeks at 37° C., NaCl 10 mM, glycerol 16 mg/ml) was 2.25%, the “Di- & polymers (%) formed” value ([2]; 8 weeks at 37° C., NaCl 10 mM, mannitol 36 mg/ml) was 1.90% and the “Di- & polymers (%) formed” value ([2]; 8 weeks at 37° C., NaCl 20 mM, glycerol 16 mg/ml) was 1.82%. The “Di- & polymers (%) formed” value ([2]; 8 weeks at 37° C., NaCl 20 mM, mannitol 36 mg/ml) was 1.61%, the “Di- & polymers (%) formed” value ([2]; 8 weeks at 37° C., NaCl 30 mM, glycerol 16 mg/ml) was 1.83% and the “Di- & polymers (%) formed” value ([2]; 8 weeks at 37° C., NaCl 40 mM, glycerol 16 mg/ml) was 1.78%. For the same substance, the “Di- & polymers (%) formed” value ([2]; 8 weeks at 37° C., NaCl 40 mM, mannitol 36 mg/ml) was 1.56%, the “Di- & polymers (%) formed” value ([2]; 8 weeks at 37° C., NaCl 50 mM, glycerol 16 mg/ml) was 1.68% and the “Di- & polymers (%) formed” value ([2]; 13 weeks at 25° C., NaCl 5 mM, glycerol 16 mg/ml) was 1.08%. The “Di- & polymers (%) formed” value ([2]; 13 weeks at 25° C., NaCl 5 mM, mannitol 36 mg/ml) was 1.05%, the “Di- & polymers (%) formed” value ([2]; 13 weeks at 25° C., NaCl 10 mM, glycerol 16 mg/ml) was 0.98% and the “Di- & polymers (%) formed” value ([2]; 13 weeks at 25° C., NaCl 10 mM, mannitol 36 mg/ml) was 0.84%. For the same substance, the “Di- & polymers (%) formed” value ([2]; 13 weeks at 25° C., NaCl 20 mM, glycerol 16 mg/ml) was 0.80%, the “Di- & polymers (%) formed” value ([2]; 13 weeks at 25° C., NaCl 20 mM, mannitol 36 mg/ml) was 0.71% and the “Di- & polymers (%) formed” value ([2]; 13 weeks at 25° C., NaCl 30 mM, glycerol 16 mg/ml) was 0.80%. The “Di- & polymers (%) formed” value ([2]; 13 weeks at 25° C., NaCl 40 mM, glycerol 16 mg/ml) was 0.79%, the “Di- & polymers (%) formed” value ([2]; 13 weeks at 25° C., NaCl 40 mM, mannitol 36 mg/ml) was 0.70% and the “Di- & polymers (%) formed” value ([2]; 13 weeks at 25° C., NaCl 50 mM, glycerol 16 mg/ml) was 0.72%.
